Measured values: PMC12817480, “Phospho‐Proteomics Identifies D‐Group MAP Kinases as Substrates of the Arabidopsis Tyrosine Phosphatase RLPH2” (Plant Direct, 2026)
Blank lines part the entries; values can stand above or below the binder they belong to.

How the values were obtained:
Settings in all cases: both partners purified
[1] = target: T1, Purified MPK9‐V5‐His6 with the RVSF motif maintained (MPK9^RVSF), as used with PP1 (Arabidopsis thaliana, UniProt Q9LV37 1-510); test: far-Western, overlay or dot blot; MPK9^RVXF and MPK9^RASA run on SDS‐PAGE, blotted to nitrocellulose, probed with PP1 (TOPP) isoforms (2 μg/mL) for 4 h in TBS plus 5% milk powder; PP1 detected with anti‐TOPP antibody
T1 construct: MAP kinase 9 (MPK9), Arabidopsis thaliana, At3g18040, synthesized gene codon optimized for bacteria, in pDEST42; Same construct as m2; also called MPK9^RVXF; MPK9^RVxF; source: E. coli BL21 (DE3) CodonPlus‐RIL, purified (Ni‐NTA)
T1 sequence (looked up): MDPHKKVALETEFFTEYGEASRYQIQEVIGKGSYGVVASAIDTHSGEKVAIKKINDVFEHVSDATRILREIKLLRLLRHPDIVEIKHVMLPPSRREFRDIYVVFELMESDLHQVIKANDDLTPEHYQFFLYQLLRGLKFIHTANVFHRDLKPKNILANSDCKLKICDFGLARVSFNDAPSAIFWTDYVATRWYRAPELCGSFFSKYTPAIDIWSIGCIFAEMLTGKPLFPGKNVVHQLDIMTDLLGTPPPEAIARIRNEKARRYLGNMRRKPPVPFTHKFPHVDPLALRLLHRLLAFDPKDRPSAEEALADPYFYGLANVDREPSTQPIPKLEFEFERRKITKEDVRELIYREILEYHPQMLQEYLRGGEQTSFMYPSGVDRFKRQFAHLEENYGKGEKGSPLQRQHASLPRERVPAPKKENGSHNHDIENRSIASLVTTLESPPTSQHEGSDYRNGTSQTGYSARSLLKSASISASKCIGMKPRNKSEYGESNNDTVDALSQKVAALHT

[2] = target: T1, Purified MPK9‐V5‐His6 with the RVSF …; test: pull-down; TOPP5 (1 μg) and MPK9^RVXF or MPK9^RASA (5 μg) incubated 1 h at RT, then with BSA‐blocked Ni‐NTA 1 h at RT; washed with 50 mM HEPES pH 7.5, 300 mM NaCl, 0.1% Tween 20; western blot (V5, pan‐TOPP)
[3] = target: T2, MPK9‐V5‐His6, full‐length, activated/phosphorylated (MPK9^TDY) (Arabidopsis thaliana, UniProt Q9LV37 1-510, phospho-threonine and phospho-tyrosine of the activation loop TDY motif (autophosphorylated; dual phosphorylated pTxpY)); test: far-Western, overlay or dot blot; purified activated MPKs dotted onto nitrocellulose, blocked, overlaid with purified RLPH2 (1.5 μg/mL), detected with anti‐RLPH2 antibody; in triplicate
T2 construct: MAP kinase 9 (MPK9), Arabidopsis thaliana, At3g18040, synthesized gene codon optimized for bacteria, in pDEST42; Printed as MPK9-V5-His6 (tags written after the name); also called MAP kinase 9; ATMPK9; source: E. coli BL21 (DE3) CodonPlus‐RIL, purified (Ni‐NTA), then autophosphorylated with Mg‐ATP
T2 sequence (looked up): T1 sequence (looked up)

binding result [1]: binds
B4: Arabidopsis PP1 isoform 8 (TOPP8) (enzyme, Arabidopsis thaliana, UniProt O82734 1-324, looked up)
chain: MMTSMEGMVEKGVLDDIIRRLLEGKGGKQVQLSESEIRQLCFNARQIFLSQPNLLDLHAPIRICGDIHGQYQDLLRLFEYGGYPPSANYLFLGDYVDRGKQSLETICLLLAYKIRYPSKIYLLRGNHEDAKINRIYGFYDECKRRFNVRLWKVFTDCFNCLPVAALIDEKILCMHGGLSPDLDNLNQIREIQRPIEIPDSGLLCDLLWSDPDQKIEGWADSDRGISCTFGADKVAEFLDKNDLDLICRGHQVVEDGYEFFAKRRLVTIFSAPNYGGEFDNAGALLSVDESLVCSFEIMKPAPASSSHPLKKDFHNRTLGYNLSA
notes: Type one protein phosphatase 8 (TOPP8), PP1 catalytic subunit, Arabidopsis thaliana; source: recombinant, purified on microcystin‐Sepharose (as in Templeton et al. 2011)

binding result [1]: binds
B5: Arabidopsis PP1 isoform 4 (TOPP4) (enzyme, Arabidopsis thaliana, UniProt P48484 1-321, looked up)
chain: MATTTTTQGQQTAIDSAVLDDIIRRLTEVRLARPGKQVQLSEAEIKQLCTTARDIFLQQPNLLELEAPIKICGDIHGQYSDLLRLFEYGGFPPSANYLFLGDYVDRGKQSLETICLLLAYKIKYPGNFFLLRGNHECASINRIYGFYDECKRRFNVRVWKVFTDCFNCLPVAALIDDKILCMHGGLSPDLDHLDEIRNLPRPTMIPDTGLLCDLLWSDPGKDVKGWGMNDRGVSYTFGPDKVSEFLTKHDLDLVCRAHQVVEDGYEFFADRQLVTVFSAPNYCGEFDNAGAMMSVDENLMCSFQILKPAEKKTKFMMSTKI
notes: Type one protein phosphatase 4 (TOPP4), PP1 catalytic subunit, Arabidopsis thaliana; source: recombinant, purified on microcystin‐Sepharose (as in Templeton et al. 2011)

binding result [1]: binds
B6: Arabidopsis PP1 isoform 1 (TOPP1) (enzyme, Arabidopsis thaliana, UniProt P30366 1-318, looked up)
chain: MAEKPAQEQEQKRAMEPAVLDDIIRRLVEFRNTRPGSGKQVHLSEGEIRQLCAVSKEIFLQQPNLLELEAPIKICGDIHGQYSDLLRLFEYGGFPPEANYLFLGDYVDRGKQSLETICLLLAYKIKYPENFFLLRGNHESASINRIYGFYDECKRRFNVRLWKIFTDCFNCLPVAALIDDRILCMHGGISPELKSLDQIRNIARPMDIPESGLVCDLLWSDPSGDVGWGMNDRGVSYTFGADKVAEFLEKHDMDLICRAHQVVEDGYEFFAERQLVTVFSAPNYCGEFDNAGAMMSIDESLMCSFQILKPSEKKSPFL
notes: Type one protein phosphatase 1 (TOPP1), PP1 catalytic subunit, Arabidopsis thaliana; source: recombinant, purified on microcystin‐Sepharose (as in Templeton et al. 2011)

binding result [1]: binds
B7: Arabidopsis PP1 isoform 3 (TOPP3) (enzyme, Arabidopsis thaliana, UniProt P48483 1-322, looked up)
chain: MEDSVVDDVIKRLLGAKNGKTTKQVQLTEAEIKHLCSTAKQIFLTQPNLLELEAPIKICGDTHGQFSDLLRLFEYGGYPPAANYLFLGDYVDRGKQSVETICLLLAYKIKYKENFFLLRGNHECASINRIYGFYDECKKRYSVRVWKIFTDCFNCLPVAALIDEKILCMHGGLSPELKHLDEIRNIPRPADIPDHGLLCDLLWSDPDKDIEGWGENDRGVSYTFGADKVEEFLQTHDLDLICRAHQVVEDGYEFFANRQLVTIFSAPNYCGEFDNAGAMMSVDDSLTCSFQILKASEKKGNFGFGKNAGRRGTPPRKGGGKG
notes: Type one protein phosphatase 3 (TOPP3), PP1 catalytic subunit, Arabidopsis thaliana; source: recombinant, purified on microcystin‐Sepharose (as in Templeton et al. 2011)

binding result [3]: binds
B8: Arabidopsis thaliana Rhizobiales‐like phosphatase 2 (RLPH2‐V5‐His6) (enzyme, UniProt Q9SR62 1-309, looked up)
chain: MAQKPRTVICVGDIHGYISKLNNLWLNLQSAIDPSDFSSALVIFLGDYCDRGPETRKVIDFLISLPEKHPDQTHVFLAGNHDFAFSGFLGLLPRPSDGSDLKDTWKEYSKSEETEGWYTGEGFEDMHLQGRRWAGKIKATFNSVKGMAYKGSIYDAGSTFESYGVPHGSSDLMKAVPESHKKFLTNMVWVHEEDDVCIETEEGLKHCKLIAVHAGLEKGNNVEEQLKLLRAKDTSISKIQHLSGRKNVWDIPQELDDKHTVVVSGHHGKLHIDGMRLIIDEGGGFPDKPVAAIVLPSKKIIRDTDNLSS
notes: Rhizobiales-like phosphatase 2 (RLPH2), Arabidopsis thaliana; Printed as RLPH2-V5-His6 (tags written after the name); source: bacterially expressed, purified (as in Uhrig et al. 2016)

The next lines start with the binder.

B1: Arabidopsis PP1 isoform 2 (TOPP2) (enzyme, Arabidopsis thaliana, UniProt P48482 1-312, looked up)
chain: MAQQGQGSMDPAALDDIIRRLLDYRNPKPGTKQAMLNESEIRQLCIVSREIFLQQPNLLELEAPIKICGDIHGQYSDLLRLFEYGGFPPTANYLFLGDYVDRGKQSLETICLLLAYKIKYPENFFLLRGNHECASINRIYGFYDECKRRFSVRLWKVFTDSFNCLPVAAVIDDKILCMHGGLSPDLTNVEQIKNIKRPTDVPDSGLLCDLLWSDPSKDVKGWGMNDRGVSYTFGPDKVAEFLIKNDMDLICRAHQVVEDGYEFFADRQLVTIFSAPNYCGEFDNAGAMMSVDESLMCSFQILKPADRKPRFL
notes: Type one protein phosphatase 2 (TOPP2), PP1 catalytic subunit, Arabidopsis thaliana; source: recombinant, purified on microcystin‐Sepharose (as in Templeton et al. 2011)
binding result [1]: binds

B2: Arabidopsis PP1 isoform 5 (TOPP5) (enzyme, Arabidopsis thaliana, UniProt P48485 1-312, looked up)
chain: MAQQGQGSMDPAVLDDIIRRLLDYRNPKAGTKQAMLNDSEIRQLCFVSREIFLQQPCLLELAAPVKICGDIHGQYSDLLRLFEYGGFPPAANYLFLGDYVDRGKQSLETICLLLAYKIKYPENFFLLRGNHECASINRIYGFYDECKRRFNVKLWKVFTDTFNCLPVAAVIDEKILCMHGGLSPELINVEQIKNIERPTDVPDAGLLCDLLWSDPSKDVKGWGMNDRGVSYTFGADKVAEFLIKNDMDLVCRAHQVVEDGYEFFADRQLVTMFSAPNYCGEFDNAGALMSVDESLMCSFQILKPVDRRSRFF
notes: Type one protein phosphatase 5 (TOPP5), PP1 catalytic subunit, Arabidopsis thaliana; also called AtPP1; source: recombinant, purified on microcystin‐Sepharose (as in Templeton et al. 2011)
binding result [2]: binds

B3: Arabidopsis PP1 isoform 9 (TOPP9) (enzyme, Arabidopsis thaliana, UniProt Q9M9W3 1-318, looked up)
chain: MMTSMEGMMEMGVLDDIIRRLLEGKGGKQVQLSEVEIRQLCVNARQIFLSQPNLLELHAPIRICGDIHGQYQDLLRLFEYGGYPPSANYLFLGDYVDRGKQSLETICLLLAYKIRYPSKIFLLRGNHEDAKINRIYGFYDECKRRFNVRLWKIFTDCFNCLPVAALIDEKILCMHGGLSPELENLGQIREIQRPTEIPDNGLLCDLLWSDPDQKNEGWTDSDRGISCTFGADVVADFLDKNDLDLICRGHQVVEDGYEFFAKRRLVTIFSAPNYGGEFDNAGALLSVDQSLVCSFEILKPAPASSTNPLKKVPKMGKS
notes: Type one protein phosphatase 9 (TOPP9), PP1 catalytic subunit, Arabidopsis thaliana; source: recombinant, purified on microcystin‐Sepharose (as in Templeton et al. 2011)
binding result [1]: binds
